Laboratory results reported in paper PMC10786891, “Massively parallel profiling of RNA-targeting CRISPR-Cas13d”.
Where a chain is given by its changes, count along the chain named.

T1: EsCas13d, nuclease-dead (Eubacterium siraeum, UniProt B0MS50, R295A;H300A;R849A;H854A)
T1 sequence: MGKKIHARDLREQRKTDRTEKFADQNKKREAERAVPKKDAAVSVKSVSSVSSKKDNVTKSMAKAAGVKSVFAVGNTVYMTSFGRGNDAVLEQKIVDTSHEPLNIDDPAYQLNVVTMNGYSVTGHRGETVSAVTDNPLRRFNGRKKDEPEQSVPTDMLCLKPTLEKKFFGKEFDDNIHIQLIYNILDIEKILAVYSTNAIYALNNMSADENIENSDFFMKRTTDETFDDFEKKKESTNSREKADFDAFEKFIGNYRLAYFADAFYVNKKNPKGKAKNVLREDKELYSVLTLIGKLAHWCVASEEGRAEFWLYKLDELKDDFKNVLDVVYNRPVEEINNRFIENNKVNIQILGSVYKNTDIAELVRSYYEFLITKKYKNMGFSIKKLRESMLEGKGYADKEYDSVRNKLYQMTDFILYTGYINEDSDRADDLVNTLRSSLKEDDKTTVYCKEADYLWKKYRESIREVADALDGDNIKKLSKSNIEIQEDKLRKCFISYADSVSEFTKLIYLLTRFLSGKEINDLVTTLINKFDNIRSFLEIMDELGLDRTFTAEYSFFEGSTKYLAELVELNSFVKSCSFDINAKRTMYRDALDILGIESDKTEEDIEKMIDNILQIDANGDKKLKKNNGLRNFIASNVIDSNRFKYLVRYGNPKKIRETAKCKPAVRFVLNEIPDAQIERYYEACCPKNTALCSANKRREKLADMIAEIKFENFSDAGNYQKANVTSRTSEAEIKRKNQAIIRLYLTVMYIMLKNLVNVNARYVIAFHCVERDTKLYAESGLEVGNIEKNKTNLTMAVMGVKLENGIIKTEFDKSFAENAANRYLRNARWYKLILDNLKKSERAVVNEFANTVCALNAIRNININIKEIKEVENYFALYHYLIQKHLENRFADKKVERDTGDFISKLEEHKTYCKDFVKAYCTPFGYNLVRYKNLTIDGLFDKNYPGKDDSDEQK

B1: target 1 insU 3' of 20,insG 3' of 9 (mixed)
RNA 1: CACCCGUGCAAAAAUGCAGGGGUCUAAAACUGAGCGGAUAACCUCUCUAUGG
RNA 2: GGGAAUGGAUCCACAUCUACGAAUUCGUACCAUUAGAGAGGUUAGUCCGCUCACCGAGAUCGGAAGAGCACACGU
B2: target 1 insA 3' of 7,insG 3' of 2 (mixed)
RNA 1: B1 RNA 1
RNA 2: GGGAAUGGAUCCACAUCUACGAAUUCGUACCAUAGAGAGGUUAUCACGCUCGACCGAGAUCGGAAGAGCACACGU
B3: target 1 insU 3' of 12,insG 3' of 1 (mixed)
RNA 1: B1 RNA 1
RNA 2: B2 RNA 2 with A43U, U44A, C45U, A46C, G52A, A53G
B4: target 2 MT 5'PFS UGC 3'PFS UUA (mixed)
RNA 1: CACCCGUGCAAAAUUGCAGGGGUCUAAAACCUUCUCCAAAUUGUUUCAUCCU
RNA 2: GGGAAUGGAUCCACAUCUACGAAUUCUGCAGGAUGAAACAAUUUGGAGAAGUUAAGAUCGGAAGAGCACACGU
B5: target 2 MT 5'PFS UUU 3'PFS UGU (mixed)
RNA 1: B4 RNA 1
RNA 2: B4 RNA 2 with G28U, C29U, U53G, A54U
B6: target 2 MT 5'PFS AUA 3'PFS AUU (mixed)
RNA 1: B4 RNA 1
RNA 2: B4 RNA 2 with U27A, G28U, C29A, U52A, A54U
B7: target 2 MT 5'PFS AUG 3'PFS UUC (mixed)
RNA 1: B4 RNA 1
RNA 2: B4 RNA 2 with U27A, G28U, C29G, A54C
B8: target 2 MT 5'PFS GUU 3'PFS UCA (mixed)
RNA 1: B4 RNA 1
RNA 2: B4 RNA 2 with U27G, G28U, C29U, U53C
B9: target 2 MT 5'PFS GGA 3'PFS UGC (mixed)
RNA 1: B4 RNA 1
RNA 2: B4 RNA 2 with U27G, C29A, U53G, A54C
B10: target 2 MT 5'PFS AUA 3'PFS AUA (mixed)
RNA 1: B4 RNA 1
RNA 2: B4 RNA 2 with U27A, G28U, C29A, U52A
B11: target 2 MT 5'PFS GAC 3'PFS AAA (mixed)
RNA 1: B4 RNA 1
RNA 2: B4 RNA 2 with U27G, G28A, U52A, U53A
B12: target 2 MT 5'PFS CUU 3'PFS UUG (mixed)
RNA 1: B4 RNA 1
RNA 2: B4 RNA 2 with U27C, G28U, C29U, A54G
B13: target 2 MT 5'PFS AAA 3'PFS CAC (mixed)
RNA 1: B4 RNA 1
RNA 2: B4 RNA 2 with U27A, G28A, C29A, U52C, U53A, A54C
B14: target 2 MT 5'PFS UCA 3'PFS AGA (mixed)
RNA 1: B4 RNA 1
RNA 2: B4 RNA 2 with G28C, C29A, U52A, U53G
B15: target 2 MT 5'PFS GAC 3'PFS AAG (mixed)
RNA 1: B4 RNA 1
RNA 2: B4 RNA 2 with U27G, G28A, U52A, U53A, A54G
B16: target 2 MT 5'PFS GUU 3'PFS UCC (mixed)
RNA 1: B4 RNA 1
RNA 2: B4 RNA 2 with U27G, G28U, C29U, U53C, A54C
B17: target 2 MT 5'PFS UAC 3'PFS ACU (mixed)
RNA 1: B4 RNA 1
RNA 2: B4 RNA 2 with G28A, U52A, U53C, A54U
B18: target 2 MT 5'PFS AAA 3'PFS CAG (mixed)
RNA 1: B4 RNA 1
RNA 2: B4 RNA 2 with U27A, G28A, C29A, U52C, U53A, A54G
B19: target 2 MT 5'PFS UGG 3'PFS CAG (mixed)
RNA 1: B4 RNA 1
RNA 2: B4 RNA 2 with C29G, U52C, U53A, A54G
B20: target 2 MT 5'PFS GUU 3'PFS UCU (mixed)
RNA 1: B4 RNA 1
RNA 2: B4 RNA 2 with U27G, G28U, C29U, U53C, A54U
B21: target 2 MT 5'PFS GCC 3'PFS UAA (mixed)
RNA 1: B4 RNA 1
RNA 2: B4 RNA 2 with U27G, G28C, U53A
B22: target 2 MT 5'PFS UCA 3'PFS AGC (mixed)
RNA 1: B4 RNA 1
RNA 2: B4 RNA 2 with G28C, C29A, U52A, U53G, A54C
B23: target 2 MT 5'PFS GCC 3'PFS UAC (mixed)
RNA 1: B4 RNA 1
RNA 2: B4 RNA 2 with U27G, G28C, U53A, A54C
B24: target 2 MT 5'PFS AAU 3'PFS UAU (mixed)
RNA 1: B4 RNA 1
RNA 2: B4 RNA 2 with U27A, G28A, C29U, U53A, A54U
B25: target 2 MT 5'PFS UCA 3'PFS AGG (mixed)
RNA 1: B4 RNA 1
RNA 2: B4 RNA 2 with G28C, C29A, U52A, U53G, A54G
B26: target 2 MT 5'PFS UUU 3'PFS UGC (mixed)
RNA 1: B4 RNA 1
RNA 2: B4 RNA 2 with G28U, C29U, U53G, A54C
B27: target 2 MT 5'PFS CUU 3'PFS UUC (mixed)
RNA 1: B4 RNA 1
RNA 2: B4 RNA 2 with U27C, G28U, C29U, A54C
B28: target 2 MT 5'PFS CUU 3'PFS UUA (mixed)
RNA 1: B4 RNA 1
RNA 2: B4 RNA 2 with U27C, G28U, C29U
B29: target 2 MT 5'PFS GAC 3'PFS AAC (mixed)
RNA 1: B4 RNA 1
RNA 2: B4 RNA 2 with U27G, G28A, U52A, U53A, A54C
B30: target 2 MT 5'PFS AGG 3'PFS CAG (mixed)
RNA 1: B4 RNA 1
RNA 2: B4 RNA 2 with U27A, C29G, U52C, U53A, A54G
B31: target 2 MT 5'PFS ACA 3'PFS AUU (mixed)
RNA 1: B4 RNA 1
RNA 2: B4 RNA 2 with U27A, G28C, C29A, U52A, A54U
B32: target 2 MT 5'PFS AUA 3'PFS AUG (mixed)
RNA 1: B4 RNA 1
RNA 2: B4 RNA 2 with U27A, G28U, C29A, U52A, A54G
B33: target 2 MT 5'PFS GGU 3'PFS ACU (mixed)
RNA 1: B4 RNA 1
RNA 2: B4 RNA 2 with U27G, C29U, U52A, U53C, A54U
B34: target 2 MT 5'PFS AUA 3'PFS AUC (mixed)
RNA 1: B4 RNA 1
RNA 2: B4 RNA 2 with U27A, G28U, C29A, U52A, A54C
B35: target 2 MT 5'PFS CUU 3'PFS UUU (mixed)
RNA 1: B4 RNA 1
RNA 2: B4 RNA 2 with U27C, G28U, C29U, A54U
B36: target 2 MT 5'PFS GCC 3'PFS UAG (mixed)
RNA 1: B4 RNA 1
RNA 2: B4 RNA 2 with U27G, G28C, U53A, A54G
B37: target 2 MT 5'PFS GAC 3'PFS AAU (mixed)
RNA 1: B4 RNA 1
RNA 2: B4 RNA 2 with U27G, G28A, U52A, U53A, A54U
B38: target 2 MT 5'PFS AAU 3'PFS UAC (mixed)
RNA 1: B4 RNA 1
RNA 2: B4 RNA 2 with U27A, G28A, C29U, U53A, A54C

Each binder was assayed against T1, EsCas13d, nuclease-dead (assay: crRNA (strand 1, pre-loaded); Mg2+; 40 mM Tris-HCl pH 7.5, 150 mM NaCl, 6 mM MgCl2, 1 mM DTT, 0.1% Tween-20, 0.2 mg/ml BSA; 25 C; 10 min per concentration, then washed). Settings: tags: His6-TwinStrep-SUMO cleaved; N-terminal SNAP kept (SNAP-Surface 488); label: 3' end held by stalled T7 RNA polymerase.

Binder	Kd
B1	29 ± 4 nM
B2	7.4 ± 0.7 nM
B3	7.3 ± 0.7 nM
B4	~27 nM
B5	16 ± 1.8 nM
B6	5.8 ± 0.8 nM
B7	21 ± 4 nM
B8	29 ± 8 nM
B9	10.5 ± 0.9 nM
B10	5.2 ± 0.6 nM
B11	9.5 ± 1.9 nM
B12	6 ± 0.7 nM
B13	5.4 ± 1.2 nM
B14	7.6 ± 1.8 nM
B15	8 ± 0.8 nM
B16	36 ± 5 nM
B17	9 ± 2.5 nM
B18	3.8 ± 0.6 nM
B19	6.2 ± 0.8 nM

Binder	Kd
B20	23.9 ± 3.1 nM
B21	10.9 ± 2.7 nM
B22	2.68 ± 0.29 nM
B23	20 ± 7 nM
B24	4.9 ± 0.9 nM
B25	3.3 ± 0.7 nM
B26	5.2 ± 0.4 nM
B27	9.2 ± 2 nM
B28	5 ± 0.5 nM
B29	11.4 ± 2.3 nM
B30	4.8 ± 0.5 nM
B31	5.5 ± 0.8 nM
B32	5.6 ± 0.5 nM
B33	17.8 ± 1.7 nM
B34	6.1 ± 0.7 nM
B35	8.4 ± 0.7 nM
B36	12 ± 3.4 nM
B37	10.7 ± 2.4 nM
B38	9.2 ± 2.1 nM
